Assay results published in PMC3243626 (The EMBO Journal, 2011).
Each block holds one binder with its values, some of them ahead of it. Square brackets hold non-standard residues; d marks the D form. Ends that are not written are not given here. * marks the point of attachment. Biotin = O=C1N[C@H]2[C@H](CS[C@H]2CCCCC(=O)*)N1; pT = C[C@@H](OP(=O)(O)O)[C@H](N)C(=O)O; pS = N[C@@H](COP(=O)(O)O)C(=O)O

How the values were obtained:
[1] = target: immunopurified Mec1–18myc–Ddc2 (S. cerevisiae, UniProt P38111 1-2368; Q04377 1-747); experiment: pull-down
[2] = target: T1, GST–Dpb11-N (BRCT1&2, aa 1–275) (S. cerevisiae, UniProt P47027 1-275); experiment: pull-down
T1 sequence (looked up): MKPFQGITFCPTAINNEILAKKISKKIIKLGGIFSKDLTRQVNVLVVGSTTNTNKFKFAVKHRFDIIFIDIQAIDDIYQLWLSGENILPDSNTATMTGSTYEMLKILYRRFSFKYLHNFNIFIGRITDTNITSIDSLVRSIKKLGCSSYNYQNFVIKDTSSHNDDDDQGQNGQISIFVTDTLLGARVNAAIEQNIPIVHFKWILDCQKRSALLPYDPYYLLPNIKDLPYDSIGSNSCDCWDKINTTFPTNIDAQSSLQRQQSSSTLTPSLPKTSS

immunopurified Mec1–18myc–Ddc2, sequence (P38111 whole entry, chain 1 of 2, the tested form may be a part): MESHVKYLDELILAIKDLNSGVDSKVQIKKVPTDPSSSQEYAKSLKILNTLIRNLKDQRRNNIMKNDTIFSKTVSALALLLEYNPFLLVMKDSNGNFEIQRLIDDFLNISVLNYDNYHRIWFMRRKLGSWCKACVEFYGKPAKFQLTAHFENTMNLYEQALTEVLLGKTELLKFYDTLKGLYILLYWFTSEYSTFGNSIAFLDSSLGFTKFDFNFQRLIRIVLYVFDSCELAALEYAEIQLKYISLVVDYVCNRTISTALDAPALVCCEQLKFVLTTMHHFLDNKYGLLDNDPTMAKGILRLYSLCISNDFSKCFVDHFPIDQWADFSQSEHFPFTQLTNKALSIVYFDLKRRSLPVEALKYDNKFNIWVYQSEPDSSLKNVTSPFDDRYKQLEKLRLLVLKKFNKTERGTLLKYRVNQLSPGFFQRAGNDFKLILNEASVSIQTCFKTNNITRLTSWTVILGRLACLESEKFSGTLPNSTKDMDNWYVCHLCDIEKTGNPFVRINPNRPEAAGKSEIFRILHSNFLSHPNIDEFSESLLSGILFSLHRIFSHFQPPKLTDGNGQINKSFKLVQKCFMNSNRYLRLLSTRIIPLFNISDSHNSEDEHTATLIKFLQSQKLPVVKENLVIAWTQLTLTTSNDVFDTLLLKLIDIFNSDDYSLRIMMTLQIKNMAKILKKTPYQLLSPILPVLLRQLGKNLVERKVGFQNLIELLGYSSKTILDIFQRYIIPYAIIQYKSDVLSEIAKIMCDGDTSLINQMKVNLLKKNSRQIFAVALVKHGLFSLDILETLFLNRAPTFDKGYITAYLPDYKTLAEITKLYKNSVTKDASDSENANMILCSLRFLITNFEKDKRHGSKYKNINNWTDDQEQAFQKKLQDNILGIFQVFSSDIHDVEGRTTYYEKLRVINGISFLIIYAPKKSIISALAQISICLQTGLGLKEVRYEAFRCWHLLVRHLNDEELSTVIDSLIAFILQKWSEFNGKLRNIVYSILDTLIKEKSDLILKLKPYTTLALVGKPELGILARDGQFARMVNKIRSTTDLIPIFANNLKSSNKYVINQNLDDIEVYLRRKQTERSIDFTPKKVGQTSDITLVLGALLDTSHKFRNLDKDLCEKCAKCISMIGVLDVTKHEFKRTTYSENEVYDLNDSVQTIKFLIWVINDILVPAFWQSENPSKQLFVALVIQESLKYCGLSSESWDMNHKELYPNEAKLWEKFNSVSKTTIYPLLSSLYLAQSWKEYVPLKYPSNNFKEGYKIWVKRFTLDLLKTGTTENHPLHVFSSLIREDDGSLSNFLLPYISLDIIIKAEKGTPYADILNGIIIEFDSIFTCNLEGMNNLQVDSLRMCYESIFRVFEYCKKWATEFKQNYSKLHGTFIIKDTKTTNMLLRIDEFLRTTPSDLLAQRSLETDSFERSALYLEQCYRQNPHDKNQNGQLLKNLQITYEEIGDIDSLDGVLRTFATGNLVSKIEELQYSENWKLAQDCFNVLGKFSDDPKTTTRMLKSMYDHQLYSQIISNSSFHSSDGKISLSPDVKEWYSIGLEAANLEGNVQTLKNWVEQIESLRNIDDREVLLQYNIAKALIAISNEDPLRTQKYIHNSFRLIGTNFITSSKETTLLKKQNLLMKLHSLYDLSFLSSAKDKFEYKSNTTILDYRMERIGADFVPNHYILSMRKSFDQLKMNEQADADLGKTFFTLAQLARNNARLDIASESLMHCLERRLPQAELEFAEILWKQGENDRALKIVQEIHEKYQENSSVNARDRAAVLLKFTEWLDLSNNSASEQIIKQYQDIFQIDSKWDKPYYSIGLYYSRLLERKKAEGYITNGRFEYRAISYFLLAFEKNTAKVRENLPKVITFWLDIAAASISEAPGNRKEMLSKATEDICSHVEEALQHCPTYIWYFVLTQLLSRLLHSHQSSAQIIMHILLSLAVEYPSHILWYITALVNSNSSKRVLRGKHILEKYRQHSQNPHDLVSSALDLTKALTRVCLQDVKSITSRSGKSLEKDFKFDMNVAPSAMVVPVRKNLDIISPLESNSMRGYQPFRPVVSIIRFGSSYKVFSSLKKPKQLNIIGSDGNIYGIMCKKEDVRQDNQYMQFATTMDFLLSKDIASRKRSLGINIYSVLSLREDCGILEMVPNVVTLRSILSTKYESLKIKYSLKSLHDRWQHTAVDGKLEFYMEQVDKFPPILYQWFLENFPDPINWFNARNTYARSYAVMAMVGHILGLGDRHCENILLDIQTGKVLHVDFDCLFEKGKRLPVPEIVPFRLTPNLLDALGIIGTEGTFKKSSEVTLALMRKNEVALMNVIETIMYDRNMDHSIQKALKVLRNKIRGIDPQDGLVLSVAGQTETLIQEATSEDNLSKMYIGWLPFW
immunopurified Mec1–18myc–Ddc2, sequence (Q04377 whole entry, chain 2 of 2, the tested form may be a part): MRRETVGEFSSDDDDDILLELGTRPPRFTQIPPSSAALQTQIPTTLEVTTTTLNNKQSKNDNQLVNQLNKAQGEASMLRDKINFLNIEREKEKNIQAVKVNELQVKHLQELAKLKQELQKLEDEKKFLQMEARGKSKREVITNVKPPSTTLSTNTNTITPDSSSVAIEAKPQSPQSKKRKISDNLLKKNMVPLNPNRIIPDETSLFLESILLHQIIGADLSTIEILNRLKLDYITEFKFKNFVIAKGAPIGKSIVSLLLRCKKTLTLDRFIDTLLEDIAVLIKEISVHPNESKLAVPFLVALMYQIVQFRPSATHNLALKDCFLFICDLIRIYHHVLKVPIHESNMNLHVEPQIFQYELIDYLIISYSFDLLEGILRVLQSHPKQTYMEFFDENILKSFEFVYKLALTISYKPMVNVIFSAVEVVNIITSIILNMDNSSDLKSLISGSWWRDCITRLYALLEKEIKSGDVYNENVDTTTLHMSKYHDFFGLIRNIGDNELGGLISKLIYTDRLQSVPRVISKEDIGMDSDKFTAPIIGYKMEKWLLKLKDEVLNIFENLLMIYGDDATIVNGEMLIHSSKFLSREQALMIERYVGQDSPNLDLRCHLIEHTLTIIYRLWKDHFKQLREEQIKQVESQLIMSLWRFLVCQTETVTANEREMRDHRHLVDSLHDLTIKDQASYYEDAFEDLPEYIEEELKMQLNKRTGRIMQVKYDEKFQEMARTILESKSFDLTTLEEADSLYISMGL

binding result [1]: binds
B1: recombinant, full-length, His-tagged Dpb11 (natural protein, S. cerevisiae, UniProt P47027 1-764, looked up)
chain: MKPFQGITFCPTAINNEILAKKISKKIIKLGGIFSKDLTRQVNVLVVGSTTNTNKFKFAVKHRFDIIFIDIQAIDDIYQLWLSGENILPDSNTATMTGSTYEMLKILYRRFSFKYLHNFNIFIGRITDTNITSIDSLVRSIKKLGCSSYNYQNFVIKDTSSHNDDDDQGQNGQISIFVTDTLLGARVNAAIEQNIPIVHFKWILDCQKRSALLPYDPYYLLPNIKDLPYDSIGSNSCDCWDKINTTFPTNIDAQSSLQRQQSSSTLTPSLPKTSSLLNKFKPKGEKIWDKAMSLQQHSKTNFSVLGQSPLSINNKQEDLSDNSTLIFKNCAFIIHHIFPGNHRSILTKIVVQNGGKIETSYLSGIYDHSYYIIPSNKALDSFNDLPEIIDDNDGIVTEFFIERCLYYQKLLHPIDLWSKPFLSTIEFQVSSSSKLLHHEFSSSPFLNVTITGFSGVELLHLTKVLNLLKPMGINYVEYLNKSTDILLINLAALPSIPKTHPLWSNEFSDLFTQFCINNNNDDPGDNNRKDFQNNSILRNSMKRKIEYIKKFHSIPVVTPAFIFKLLSAASGENNEIFLNNIKWCIICPRGHKDDFKCKIKKPYYTSISSEKKYQNNDPKIDKTILLKRNNSSLSEHSMKDTKNELLQKIRETDSGRKKRSVSSSIMDVSSERQMPDTKRIKLESLPKNFVPKQIKRTTSWGTIMSENVPTEQPTAISNPEEIPRTEEVSHTQVTYGSIQDKKRTASLEKPMRRQTRNQTKELDS

binding result [2]: binds
Binder: {Biotin-EAhx}-GISAQKGPVFHSTGQTEEIKTQIIN[pS]PEQNALNAT (peptide, UniProt P14737 437-471, looked up) [Rad9 phospho-S462 peptide (biotinylated 35mer)]

binding result [2]: binds
Binder: TGQTEEIKTQIINSPEQNALNATFE[pT]PVTLSRINF (peptide, UniProt P14737 449-483, looked up, not fully specified (residue 23, N-terminus)) [Rad9 phospho-T474 peptide (biotinylated 35mer)]
